Results published in US7563582B2, “Process for screening chemical compounds for modulating the interaction of an EVH1 domain and a process for detecting said interaction” (sanofi-aventis Deutschland GmbH, priority 2000, dated 2009).

How the values were obtained:
VASP/ActA interaction = VASP/ActA interaction (Homo sapiens, UniProt P50552); conditions: peptides with mutations in the FPPPP motif; cited from earlier work
VASP/zyxin interaction = molecular target: T1, VASP/zyxin interaction (Homo sapiens, UniProt P50552); test: VASP-zyxin solid-phase (DELFIA) assay, competition with peptides; assay type: binding; conditions: competing zyxin peptides, FIG. 2
T1 construct: made in house; host or cells: VASP: insect cells (baculovirus); GST-zyxin(1-142): E. coli, given only for the homogeneous assay
T1 sequence (P50552 whole entry): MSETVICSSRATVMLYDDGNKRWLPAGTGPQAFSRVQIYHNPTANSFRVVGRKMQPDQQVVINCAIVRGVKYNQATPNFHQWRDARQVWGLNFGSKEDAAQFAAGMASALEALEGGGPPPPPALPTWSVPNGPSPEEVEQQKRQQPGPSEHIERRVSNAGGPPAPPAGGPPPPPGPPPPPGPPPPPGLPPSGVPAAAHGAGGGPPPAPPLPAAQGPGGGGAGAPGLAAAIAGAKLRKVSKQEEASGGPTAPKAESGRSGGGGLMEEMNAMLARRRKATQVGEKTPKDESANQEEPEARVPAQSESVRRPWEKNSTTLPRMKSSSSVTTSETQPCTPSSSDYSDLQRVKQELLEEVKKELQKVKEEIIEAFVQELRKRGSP
Method: In the solid-phase assay, a binding partner (VASP or zyxin) was immobilized on the surface of a microtiter plate (MTP) (=coating). The unsaturated binding sites on the surface of the plastic were blocked, and the surface was then incubated with the respective other binding partners. After the incubation, excess unattached protein was removed in a washing step. Using suitable antibodies, it was now possible to detect and quantify the specifically bound protein. Here, it was possible to improve the signal-noise (S/N) ratio considerably by using lanthanide chelates as fluorescent labels for the antibodies and the measurement of the time-resolved fluorescence.
For the solid-phase assay, the best coating and incubation conditions were characterized. […] For detecting VASP specifically bound to the immobilized zyxin, it was possible to use monoclonal antibodies against VASP which can be detected using lanthanide-labeled antibodies against mouse IgGs (Wallac: DELFIA anti-mouse-Eu(N1)).
The current assay protocol comprised 5 incubation steps and 3 washing steps: • 1. Incubation of the empty MTPs with GST-zyxin(1-142) (coating); • 2. Blocking with BSA (bovine serum albumin); • 3. Washing with PBS (wash buffer); • 4. Incubation with VASP (ligand) (with and without test substances); • 5. Washing with PBS; • 6. Incubation with detection mix: α-VASP (monoclonal anti-VASP antibody)+α-mouse-Eu (europium-labeled anti-mouse antibodies from Wallac); • 7. Washing with DELFIA wash solution; and • 8. Release of the bound lanthanide complex and fluorimetric measurement.
The optimum conditions for coating (GST-zyxin(1-142)) and ligand incubation (VASP) were determined by titrating the reagents. […] The volume per well used depended on the selected MTP format (50 μl or 100 μl for 96-well plates, 20 μl for 384-well plates).
Thus far, there are no known non-peptidergic inhibitors of the VASP/zyxin interaction To simulate the action of potential inhibitors, inhibition experiments were carried out using competing peptides which contained the VASP binding motif of zyxin (FPPPP (SEQ. ID. NO. 1)). […]

Sequence of VASP/ActA interaction (P50552 whole entry, species assumed): as the sequence (P50552 whole entry) above

Substance | inhibition of the VASP/ActA interaction (relative to wild type sequence FPPPP) (VASP/ActA interaction) | apparent inhibition constants of the peptides (rank order of inhibition) (VASP/zyxin interaction)
APPPP: competing zyxin peptide containing the mutated VASP binding motif APPPP | considerably worse inhibition | WPPPP (SEQ. ID. NO. 2)>FPPPP (SEQ. ID. NO. 1)>APPPP (SEQ. ID. NO. 3)
FPPPP: competing peptide containing the wild type VASP binding motif of zyxin, FPPPP | WPPPP (SEQ. ID. NO. 2)>FPPPP (SEQ. ID. NO. 1)>APPPP (SEQ. ID. NO. 3) | WPPPP (SEQ. ID. NO. 2)>FPPPP (SEQ. ID. NO. 1)>APPPP (SEQ. ID. NO. 3)
WPPPP: competing zyxin peptide containing the mutated VASP binding motif WPPPP | even better inhibition | WPPPP (SEQ. ID. NO. 2)>FPPPP (SEQ. ID. NO. 1)>APPPP (SEQ. ID. NO. 3)
